Test results published in patent publication US20210054355A1 (NEW YORK UNIVERSITY, published 2021).
Substitutions are numbered along the chain they refer to. Numbers in names are those of the source.

B1: FGFR1c^ecto/ΔHBS (FGFR1c^ecto carrying K160Q/K163Q) (receptor)
chain: DNTKPNRMPVAPYWTSPEQMEQKLHAVPAAKTVKFKCPSSGTPNPTLRWLKNGKEFKPDHRIGGYKVRYATWSIIMDSVVPSDKGNYTCIVENEYGSINHTYQLDVVERSPHRPILQAGLPANKTVALGSNVEFMCKVYSDPQPHIQWLKHIEVNGSKIGPDNLPYVQILKTAGVNTTDKEMEVLHLRNVSFEDAGEYTCLAGNSIGLSHHSAWLTVLEALEER
notes: also called FGFR1c^ΔHBS
B2: FGFR1c^ecto/ΔSLBS (FGFR1c^ecto carrying I203E) (receptor)
chain: B1 chain with Q19K, Q22K, I62E
notes: also called FGFR1c^ΔSLBS
B3: FGFR1c^ecto/ΔRRBS (FGFR1c^ecto carrying A171D) (receptor)
chain: B1 chain with Q19K, Q22K, A30D
notes: also called FGFR1^ΔRRBS
B4: FGFR1c^ecto/ΔSLBS′ (FGFR1c^ecto carrying V221D) (receptor)
chain: B1 chain with Q19K, Q22K, V80D
notes: also called FGFR1c^ΔSLBS′
B5: FGFR1c^ecto/ΔHBS′ (FGFR1c^ecto carrying K207Q/R209Q) (receptor)
chain: B1 chain with Q19K, Q22K, K66Q, R68Q
notes: also called FGFR1c^ΔHBS′
B6: αKlotho^ecto/ΔRBA (soluble αKlotho ectodomain lacking L544 to T565 of the KL2 β1α1 loop) (receptor)
chain: EPGDGAQTWARVSRPPAPEAAGLFQGTFPDGFLWAVGSAAYQTEGGWQQHGKGASIWDTFTHHPLAPPGDSRNASLPLGAPSPLQPATGDVASDSYNNVFRDTEALRELGVTHYRFSISWARVLPNGSAGVPNREGLRYYRRLLERLRELGVQPVVTLYHWDLPQRLQDAYGGWANRALADHFRDYAELCFRHFGGQVKYWITIDNPYVVAWHGYATGRLAPGIRGSPRLGYLVAHNLLLAHAKVWHLYNTSFRPTQGGQVSIALSSHWINPRRMTDHSIKECQKSLDFVLGWFAKPVFIDGDYPESMKNNLSSILPDFTESEKKFIKGTADFFALCFGPTLSFQLLDPHMKFRQLESPNLRQLLSWIDLEFNHPQIFIVENGWFVSGTTKRDDAKYMYYLKKFIMETLKAIKLDGVDVIGYTAWSLMDGFEWHRGYSIRRGLFYVDFLSQDKMLLPKSSALFYQKLIEKNGFPPLPENQPLEGTFPCDFAWGVVDNYIQVDTTLSQFTDKKRKSYCVDFAAIQPQIALLQEMHVTHFRFSLDWALILPLGNQSQVNHTILQYYRCMASELVRVNITPVVALWQPMAPNQGLPRLLARQGAWENPYTALAFAEYARLCFQELGHHVKLWITMNEPYTRNMTYSAGHNLLKAHALAWHVYNEKFRHAQNGKISIALQADWIEPACPFSQKDKEVAERVLEFDIGWLAEPIFGSGDYPWVMRDWLNQRNNFLLPYFTEDEKKLIQGTFDFLALSHYTTILVDSEKEDPIKYNDYLEVQEMTDITWLNSPSQVAVVPWGLRKVLNWLKFKYGDLPMYIISNGIDDGLHAEDDQLRVYYMQNYINEALKAHILDGINLCGYFAYSFNDRTAPRFGLYRYAADQFEPKASMKHYRKIIDSNGFPGPETLERFCPEEFTVCTECSFFHTRKS
notes: the mature protein is E34 to S959; Expressed and purified like the wild type (pEF1α/myc-His A); also called α-Klotho^ecto/deltaRBA; αKlotho^ecto/ΔRBA mutant
B7: Soluble human α-Klotho ectodomain (αKlotho^ecto) (receptor)
chain: EPGDGAQTWARVSRPPAPEAAGLFQGTFPDGFLWAVGSAAYQTEGGWQQHGKGASIWDTFTHHPLAPPGDSRNASLPLGAPSPLQPATGDVASDSYNNVFRDTEALRELGVTHYRFSISWARVLPNGSAGVPNREGLRYYRRLLERLRELGVQPVVTLYHWDLPQRLQDAYGGWANRALADHFRDYAELCFRHFGGQVKYWITIDNPYVVAWHGYATGRLAPGIRGSPRLGYLVAHNLLLAHAKVWHLYNTSFRPTQGGQVSIALSSHWINPRRMTDHSIKECQKSLDFVLGWFAKPVFIDGDYPESMKNNLSSILPDFTESEKKFIKGTADFFALCFGPTLSFQLLDPHMKFRQLESPNLRQLLSWIDLEFNHPQIFIVENGWFVSGTTKRDDAKYMYYLKKFIMETLKAIKLDGVDVIGYTAWSLMDGFEWHRGYSIRRGLFYVDFLSQDKMLLPKSSALFYQKLIEKNGFPPLPENQPLEGTFPCDFAWGVVDNYIQVDTTLSQFTDLNVYLWDVHHSKRLIKVDGVVTKKRKSYCVDFAAIQPQIALLQEMHVTHFRFSLDWALILPLGNQSQVNHTILQYYRCMASELVRVNITPVVALWQPMAPNQGLPRLLARQGAWENPYTALAFAEYARLCFQELGHHVKLWITMNEPYTRNMTYSAGHNLLKAHALAWHVYNEKFRHAQNGKISIALQADWIEPACPFSQKDKEVAERVLEFDIGWLAEPIFGSGDYPWVMRDWLNQRNNFLLPYFTEDEKKLIQGTFDFLALSHYTTILVDSEKEDPIKYNDYLEVQEMTDITWLNSPSQVAVVPWGLRKVLNWLKFKYGDLPMYIISNGIDDGLHAEDDQLRVYYMQNYINEALKAHILDGINLCGYFAYSFNDRTAPRFGLYRYAADQFEPKASMKHYRKIIDSNGFPGPETLERFCPEEFTVCTECSFFHTRKS
notes: also called wild-type αKlotho^ecto; soluble αKlotho
B8: FGF23^ΔHBS (FGF23^WT carrying R140A/R143A) (ligand)
chain: YPNASPLLGSSWGGLIHLYTATARNSYHLQIHKNGHVDGAPHQTIYSALMIRSEDAGFVVITGVMSRRYLCMDFRGNIFGSHYFDPENCRFQHQTLENGYDVYHSPQYHFLVSLGAAKAAFLPGMNPPPYSQFLSRRNEIPLIHFNTPIPRQHTQSAEDDSERDPLNVLKPRARMTPAPAS

Assays:
[1] = target: B7; test: SEC-MALS, 1:1:1 mixture with FGF23 and αKlotho^ecto
Protocol: (§1) A Superdex 200 10/300 GL column (GE Healthcare, USA) was placed in-line between the HPLC pump (Waters 1525) and the HPLC UV (Waters 2998 Photodiode Array), laser light scattering, and refractive index detectors. Light scattering and refractive index detectors were calibrated following the manufacturer's guidelines. The refractive index increment (dn/dc) in which n is the refractive index and c is the concentration of the mixture of DDM and CHS in 20 mM Tris-HCl pH 8.0 buffer containing 300 mM NaCl, was determined offline using an Optilab T-rEX refractive index detector. Monomeric bovine serum albumin (#23210, Thermo Scientific, USA) was used as part of routine data quality control.
60 ml or more of 25 mM HEPES pH 7.5 buffer containing 150 mM NaCl were passed through the system at a flow rate of 0.5 mL/min to equilibrate the Superdex 200 10/300 GL column and establish stable baselines for light scattering and refractive index detectors. Purified αKlotho^ecto, FGER1c^ecto (wild type or mutant), and FGF23 (wild type or mutant) proteins were mixed at a molar ratio of 1:1:1 and concentrated to 12.5 μM. 50 μl of protein samples with a molar equivalent of a heparin hexasaccharide (#H006, Iduron, Manchester, U.K.) were injected onto the gel filtration column, and the column eluent was continuously monitored for 280 nm absorbance, laser light scattering, and refractive index. In a separate set of experiments, 50 μl of 1:1:1 FGF23-FGFR1c^ecto-αKlotho^ecto ternary complex at 12.5 μM concentration was mixed with heparin hexasaccharide at molar ratios of 1:0.25, 1:0.5, 1:1, or 1:2, and the mixtures were injected onto the gel filtration column. 50 μl of ternary complex without added heparin hexasaccharide were run as a control. In yet another set of experiments, αKlotho^ecto (wild type or mutant) and FGER1c^ecto were mixed at a molar ratio of 1:1, and 50 μl of concentrated protein mixtures were injected onto the gel filtration column. 50 μl of concentrated αKlotho^ecto (wild type or mutant) alone were run as a control in these experiments. The analyses were performed at ambient temperature. Data were collected every second at a flow rate of 0.5 ml/min.

[2] = target: T1, FGF23 C-terminal tail peptide (FGF23^C-tail) (human); test: fluorescence dye-based thermal shift assay (SYPRO Orange), 1:1 mixture; over the peak of αKlotho^ecto/ΔRBA alone the sheet prints 51 [right]
T1 construct: The peptide may have been shorter, e.g. S180 to S205
T1 peptide: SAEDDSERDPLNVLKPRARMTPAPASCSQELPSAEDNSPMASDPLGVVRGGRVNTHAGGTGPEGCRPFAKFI
Protocol: (§2) Fluorescence Dye-Based Thermal Shift Assay: SYPRO Orange dye (#S6650, ThermoFisher Scientific, USA) was used as the fluorescent probe. 15 μl of 20 μM solutions of protein samples (wild-type and mutated forms of FGF23; αKlotho^ecto or αKlotho^{ecto/ΔRBA} alone; 1:1 mixtures of αKlotho^ecto or αKlotho^{ecto/ΔRBA} with FGF23 C-terminal tail peptide) were mixed with 5 μl of working dye solution (1:25 dilution) in duplicate in PCR strips. A temperature gradient from 4° C. to 100° C. at 1° C./minute increment was carried out with a CFX96 Touch™ Real-Time PCR Detection System (Bio-Rad, USA). Fluorescence was recorded as a function of temperature in real time. The melting temperature (Tm) was calculated with StepOne software v2.2 as the maximum of the derivative of the resulting SYPRO Orange fluorescence curves.

[3] = target: T1, FGF23 C-terminal tail peptide …; test: fluorescence dye-based thermal shift assay (SYPRO Orange), 1:1 mixture; over the peak of αKlotho^ecto alone the sheet prints 48 [left]
Protocol: as §2

[4] = target: B7; test: SEC-MALS, 1:1:1 mixture with FGFR1c^ecto and αKlotho^ecto
Protocol: as §1
(§3) 60 ml or more of 25 mM HEPES pH 7.5 buffer containing 150 mM NaCl were passed through the system at a flow rate of 0.5 mL/min to equilibrate the Superdex 200 10/300 GL column and establish stable baselines for light scattering and refractive index detectors. Purified αKlotho^ecto, FGER1c^ecto (wild type or mutant), and FGF23 (wild type or mutant) proteins were mixed at a molar ratio of 1:1:1 and concentrated to 12.5 μM. 50 μl of protein samples with a molar equivalent of a heparin hexasaccharide (#H006, Iduron, Manchester, U.K.) were injected onto the gel filtration column, and the column eluent was continuously monitored for 280 nm absorbance, laser light scattering, and refractive index. […]

[5] = target: B1; test: SEC-MALS of the 1:1:1 mixture with αKlotho^ecto and heparin hexasaccharide; the two proteins are seen together in the ternary complex [panel B]
Protocol: as §1, §3

[6] = target: B5; test: as above
Protocol: as §1, §3

Binder | binding result [1] | further results
B1 | binds | –
B2 | binds | –
B3 | binds | –
B4 | binds | –
B5 | binds | –
B6 | – | melting temperature (peak of derivative fluorescence) of the mixture [2]: 57.5 °C
B7 | – | melting temperature (peak of derivative fluorescence) of the mixture [3]: 54 °C
B8 | – | binding result [4]: binds; binding result [5]: binds; binding result [6]: binds
